Measured values: paper PMC10365013

Biological target: avi-tagged SHOC2 (human) (UniProt Q9UQ13)
Test: SPR

Sequence of avi-tagged SHOC2 (human) (Q9UQ13 whole entry): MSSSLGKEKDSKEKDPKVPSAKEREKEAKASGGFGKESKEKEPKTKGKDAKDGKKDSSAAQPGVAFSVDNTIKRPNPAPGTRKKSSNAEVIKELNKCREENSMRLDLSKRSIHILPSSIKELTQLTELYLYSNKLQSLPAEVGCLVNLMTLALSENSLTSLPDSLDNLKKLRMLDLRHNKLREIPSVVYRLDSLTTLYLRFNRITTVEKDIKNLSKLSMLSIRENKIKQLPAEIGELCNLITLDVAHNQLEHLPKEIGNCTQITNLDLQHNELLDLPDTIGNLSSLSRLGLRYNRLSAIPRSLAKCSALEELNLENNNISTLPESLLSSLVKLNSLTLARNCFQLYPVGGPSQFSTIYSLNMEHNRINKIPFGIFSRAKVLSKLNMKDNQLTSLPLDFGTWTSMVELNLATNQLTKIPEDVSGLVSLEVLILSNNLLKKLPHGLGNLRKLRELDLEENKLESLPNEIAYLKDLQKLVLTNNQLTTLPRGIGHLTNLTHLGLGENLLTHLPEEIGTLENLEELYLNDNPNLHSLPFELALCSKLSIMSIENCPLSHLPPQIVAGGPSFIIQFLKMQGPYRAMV

Q: With “KRAS (1–169) (from UniProt P01116 1-169) (domain or fragment)” as the substance, how does the apparent KD of ternary complex formation with m3 read?
A: Its apparent KD of ternary complex formation with m3 is 700 nM.
